1 molecule from article PMC9257163, “Fluorescence Detection of Cancer Stem Cell Markers Using a Sensitive Nano-Aptamer Sensor” can be followed below.

One series has as its target T1, CD133 (prominin-1) (UniProt O43490 20-865).
T1 sequence: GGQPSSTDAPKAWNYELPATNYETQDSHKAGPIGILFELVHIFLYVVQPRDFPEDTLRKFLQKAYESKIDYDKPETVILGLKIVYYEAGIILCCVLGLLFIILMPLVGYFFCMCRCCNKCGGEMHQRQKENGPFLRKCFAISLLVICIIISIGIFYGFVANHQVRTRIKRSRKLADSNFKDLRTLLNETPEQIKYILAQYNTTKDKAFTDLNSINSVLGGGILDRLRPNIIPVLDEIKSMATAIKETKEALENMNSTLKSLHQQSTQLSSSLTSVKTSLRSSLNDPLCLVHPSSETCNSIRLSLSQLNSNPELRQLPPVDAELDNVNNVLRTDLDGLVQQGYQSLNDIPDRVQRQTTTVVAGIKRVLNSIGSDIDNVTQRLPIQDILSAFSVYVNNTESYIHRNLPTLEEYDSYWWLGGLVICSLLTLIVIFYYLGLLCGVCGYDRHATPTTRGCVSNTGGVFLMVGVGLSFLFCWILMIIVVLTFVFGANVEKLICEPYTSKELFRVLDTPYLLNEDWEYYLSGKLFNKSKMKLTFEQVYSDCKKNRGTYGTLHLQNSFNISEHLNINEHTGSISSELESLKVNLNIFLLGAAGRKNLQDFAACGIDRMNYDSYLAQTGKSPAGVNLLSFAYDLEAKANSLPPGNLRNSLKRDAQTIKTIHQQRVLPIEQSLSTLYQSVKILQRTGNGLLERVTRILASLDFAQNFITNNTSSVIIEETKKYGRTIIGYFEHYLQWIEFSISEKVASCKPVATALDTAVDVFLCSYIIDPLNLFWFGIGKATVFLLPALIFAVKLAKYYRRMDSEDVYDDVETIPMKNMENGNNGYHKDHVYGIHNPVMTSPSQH
The series can be described thus: competition (FRET turn-on displacement of AuNPs-ssRNA); 0-1.539 uM CD133, 5 nM QD-aptamer; maximum recovery 68%; LOD 6.99 nM (not a Kd); QD-aptamers redispersed in PBS; sensor annealed from 95 °C to room temperature; binding buffer, pH and temperature not stated in the material. To be noted: label: CdSe/ZnS QD on aptamer 5' end; AuNP (25 nm) on ssRNA 5' end; partially complementary RNA duplex; about 7 aptamers per QD; ssRNA displaced by protein.

For another series, the target named is TGF-β1 (UniProt P01137 279-390). The series can be described thus: competition (FRET turn-on displacement of AuNPs-ssRNA); 2 uM protein; QD-aptamers redispersed in PBS; sensor annealed from 95 °C to room temperature; binding buffer, pH and temperature not stated in the material. To be noted: chain copies: 2; label: CdSe/ZnS QD on aptamer 5' end; AuNP (25 nm) on ssRNA 5' end; partially complementary RNA duplex; about 7 aptamers per QD; ssRNA displaced by protein.
TGF-β1, sequence (P01137 279-390): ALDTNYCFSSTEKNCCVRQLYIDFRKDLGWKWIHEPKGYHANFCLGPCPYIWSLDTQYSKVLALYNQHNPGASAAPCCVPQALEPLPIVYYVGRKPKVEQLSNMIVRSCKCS

Another series has as its target EGFR (UniProt P00533 25-645). The series is described as above. The settings on record: chain copies: 2; label: CdSe/ZnS QD on aptamer 5' end; AuNP (25 nm) on ssRNA 5' end; partially complementary RNA duplex; about 7 aptamers per QD; ssRNA displaced by protein.
For the next series, the target named is T2, IL-1α (UniProt P01583 113-271).
T2 sequence: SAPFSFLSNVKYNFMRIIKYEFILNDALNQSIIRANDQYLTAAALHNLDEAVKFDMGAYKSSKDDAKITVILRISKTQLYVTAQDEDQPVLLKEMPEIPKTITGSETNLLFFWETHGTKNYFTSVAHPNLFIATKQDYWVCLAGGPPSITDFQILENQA
The series is described as above. To be noted: label: CdSe/ZnS QD on aptamer 5' end; AuNP (25 nm) on ssRNA 5' end; partially complementary RNA duplex; about 7 aptamers per QD; ssRNA displaced by protein.

B1: CD133 aptamer sensor (QD-aptamer hybridized to AuNPs-ssRNA) (mixed)
RNA 1: CCCUCCUACAUAGGG
RNA 2: CCCUAUG
modifications: 5'-NH2 on aptamer; 5'-SH on ssRNA
As to B1, the binding result in the series with CD133 (prominin-1) is given as “binds”; with TGF-β1, “no binding”; with EGFR, “no binding”; in the series with IL-1α, “no binding”.
